Assay results taken from patent US20230235012A1 (ALPINE IMMUNE SCIENCES, published 2023).
Where a chain is given by its changes, count along the chain named. Names may count otherwise.

T1: human ICOS (human, UniProt Q9Y6W8 21-199)
T1 construct: whole, on cells
T1 sequence (looked up): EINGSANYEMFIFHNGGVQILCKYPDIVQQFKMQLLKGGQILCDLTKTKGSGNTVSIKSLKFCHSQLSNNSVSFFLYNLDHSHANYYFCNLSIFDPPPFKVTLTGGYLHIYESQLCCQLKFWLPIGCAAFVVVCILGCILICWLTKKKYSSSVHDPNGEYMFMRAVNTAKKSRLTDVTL

B1: ICOSL ECD with N52H/N57Y/Q100R/C198R linked to Fc C220S/L234A/L235E/G237A (Table 30D) (Fc fusion)
chain: DTQEKEVRAMVGSDVELSCACPEGSRFDLNDVYVYWQTSESKTVVTYHIPQHSSLEYVDSRYRNRALMSPAGMLRGDFSLRLFNVTPQDEQKFHCLVLSRSLGFQEVLSVEVTLHVAANFSVPVVSAPHSPSQDELTFTCTSINGYPRPNVYWINKTDNSLLDQALQNDTVFLNMRGLYDVVSVLRIARTPSVNIGCRIENVLLQQNLTVGSQTGNDIGERDKITENPVSTGEKNAATEPKSSDKTHTCPPCPAPEAEGAPSVFLFPPKPKDTLMISRTPEVTCVVVDVSHEDPEVKFNWYVDGVEVHNAKTKPREEQYNSTYRVVSVLTVLHQDWLNGKEYKCKVSNKALPAPIEKTISKAKGQPREPQVYTLPPSREEMTKNQVSLTCLVKGFYPSDIAVEWESNGQPENNYKTTPPVLDSDGSFFLYSKLTVDKSRWQQGNVFSCSVMHEALHNHYTQKSLSLSPGK
B2: ICOSL ECD Truncation #7 with N52H/N57Y/Q100R/F172S, Fc fusion (Fc fusion)
chain: DTQEKEVRAMVGSDVELSCACPEGSRFDLNDVYVYWQTSESKTVVTYHIPQHSSLEYVDSRYRNRALMSPAGMLRGDFSLRLFNVTPQDEQKFHCLVLSRSLGFQEVLSVEVTLHVAANFSVPVVSAPHSPSQDELTFTCTSINGYPRPNVYWINKTDNSLLDQALQNDTVSLNMRGLYDVVSVLRIARTPSVNIGCCIENGGGGSGGGGSEPKSSDKTHTCPPCPAPEAEGAPSVFLFPPKPKDTLMISRTPEVTCVVVDVSHEDPEVKFNWYVDGVEVHNAKTKPREEQYNSTYRVVSVLTVLHQDWLNGKEYKCKVSNKALPAPIEKTISKAKGQPREPQVYTLPPSREEMTKNQVSLTCLVKGFYPSDIAVEWESNGQPENNYKTTPPVLDSDGSFFLYSKLTVDKSRWQQGNVFSCSVMHEALHNHYTQKSLSLSPG
B3: ICOSL ECD Truncation #4 with N52H/N57Y/Q100R/F172S, Fc fusion (Fc fusion)
chain: DTQEKEVRAMVGSDVELSCACPEGSRFDLNDVYVYWQTSESKTVVTYHIPQHSSLEYVDSRYRNRALMSPAGMLRGDFSLRLFNVTPQDEQKFHCLVLSRSLGFQEVLSVEVTLHVAANFSVPVVSAPHSPSQDELTFTCTSINGYPRPNVYWINKTDNSLLDQALQNDTVSLNMRGLYDVVSVLRIARTPSVNIGCCIENVLLQQNGGGGSGGGGSEPKSSDKTHTCPPCPAPEAEGAPSVFLFPPKPKDTLMISRTPEVTCVVVDVSHEDPEVKFNWYVDGVEVHNAKTKPREEQYNSTYRVVSVLTVLHQDWLNGKEYKCKVSNKALPAPIEKTISKAKGQPREPQVYTLPPSREEMTKNQVSLTCLVKGFYPSDIAVEWESNGQPENNYKTTPPVLDSDGSFFLYSKLTVDKSRWQQGNVFSCSVMHEALHNHYTQKSLSLSPG
B4: ICOSL IgV with N52H/N57Y/Q100R, Fc fusion (Fc fusion)
chain: DTQEKEVRAMVGSDVELSCACPEGSRFDLNDVYVYWQTSESKTVVTYHIPQHSSLEYVDSRYRNRALMSPAGMLRGDFSLRLFNVTPQDEQKFHCLVLSRSLGFQEVLSVEVTLHVAANFSVGGGGSGGGGSEPKSSDKTHTCPPCPAPEAEGAPSVFLFPPKPKDTLMISRTPEVTCVVVDVSHEDPEVKFNWYVDGVEVHNAKTKPREEQYNSTYRVVSVLTVLHQDWLNGKEYKCKVSNKALPAPIEKTISKAKGQPREPQVYTLPPSREEMTKNQVSLTCLVKGFYPSDIAVEWESNGQPENNYKTTPPVLDSDGSFFLYSKLTVDKSRWQQGNVFSCSVMHEALHNHYTQKSLSLSPG
notes: also called ICOSCL IgV with N52H/N57Y/Q100R
B5: ICOSL ECD N52H/N57Y/Q100R/F172S - AAA - Fc C220S/E233P/L234V/L235A/G236del/S267K (Fc fusion)
chain: DTQEKEVRAMVGSDVELSCACPEGSRFDLNDVYVYWQTSESKTVVTYHIPQHSSLEYVDSRYRNRALMSPAGMLRGDFSLRLFNVTPQDEQKFHCLVLSRSLGFQEVLSVEVTLHVAANFSVPVVSAPHSPSQDELTFTCTSINGYPRPNVYWINKTDNSLLDQALQNDTVSLNMRGLYDVVSVLRIARTPSVNIGCCIENVLLQQNLTVGSQTGNDIGERDKITENPVSTGEKNAATAAAEPKSSDKTHTCPPCPAPPVAGPSVFLFPPKPKDTLMISRTPEVTCVVVDVKHEDPEVKFNWYVDGVEVHNAKTKPREEQYNSTYRVVSVLTVLHQDWLNGKEYKCKVSNKALPAPIEKTISKAKGQPREPQVYTLPPSREEMTKNQVSLTCLVKGFYPSDIAVEWESNGQPENNYKTTPPVLDSDGSFFLYSKLTVDKSRWQQGNVFSCSVMHEALHNHYTQKSLSLSPGK
B6: ICOSL ECD N52H/N57Y/Q100P - AAA - Fc C220S/E233P/L234V/L235A/G236del/S267K (Fc fusion)
chain: B5 chain with R100P, S172F
B7: ICOSL ECD N52H/N57Y/Q100P - AAA - Fc C220S/L234A/L235E/G237A (Fc fusion)
chain: DTQEKEVRAMVGSDVELSCACPEGSRFDLNDVYVYWQTSESKTVVTYHIPQHSSLEYVDSRYRNRALMSPAGMLRGDFSLRLFNVTPQDEQKFHCLVLSPSLGFQEVLSVEVTLHVAANFSVPVVSAPHSPSQDELTFTCTSINGYPRPNVYWINKTDNSLLDQALQNDTVFLNMRGLYDVVSVLRIARTPSVNIGCCIENVLLQQNLTVGSQTGNDIGERDKITENPVSTGEKNAATAAAEPKSSDKTHTCPPCPAPEAEGAPSVFLFPPKPKDTLMISRTPEVTCVVVDVSHEDPEVKFNWYVDGVEVHNAKTKPREEQYNSTYRVVSVLTVLHQDWLNGKEYKCKVSNKALPAPIEKTISKAKGQPREPQVYTLPPSREEMTKNQVSLTCLVKGFYPSDIAVEWESNGQPENNYKTTPPVLDSDGSFFLYSKLTVDKSRWQQGNVFSCSVMHEALHNHYTQKSLSLSPGK
B8: ICOSL ECD N52H/N57Y/Q100R/F172S - AAA - Fc C220S/L234A/L235E/G237A (Fc fusion)
chain: B7 chain with P100R, F172S
B9: ICOSL ECD N52H/N57Y/Q100R/F172S - G4S - Fc C220S/L234A/L235E/G237A (Fc fusion)
chain: DTQEKEVRAMVGSDVELSCACPEGSRFDLNDVYVYWQTSESKTVVTYHIPQHSSLEYVDSRYRNRALMSPAGMLRGDFSLRLFNVTPQDEQKFHCLVLSRSLGFQEVLSVEVTLHVAANFSVPVVSAPHSPSQDELTFTCTSINGYPRPNVYWINKTDNSLLDQALQNDTVSLNMRGLYDVVSVLRIARTPSVNIGCCIENVLLQQNLTVGSQTGNDIGERDKITENPVSTGEKNAATGGGGSEPKSSDKTHTCPPCPAPEAEGAPSVFLFPPKPKDTLMISRTPEVTCVVVDVSHEDPEVKFNWYVDGVEVHNAKTKPREEQYNSTYRVVSVLTVLHQDWLNGKEYKCKVSNKALPAPIEKTISKAKGQPREPQVYTLPPSREEMTKNQVSLTCLVKGFYPSDIAVEWESNGQPENNYKTTPPVLDSDGSFFLYSKLTVDKSRWQQGNVFSCSVMHEALHNHYTQKSLSLSPGK
B10: ICOSL ECD N52H/N57Y/Q100P - G4S - Fc C220S/L234A/L235E/G237A (Fc fusion)
chain: B9 chain with R100P, S172F

Target: T2, human CD28 (human, UniProt P10747 19-220)
T2 construct: whole, on cells
Test: flow cytometry, transfected cells; protein from CHO

First: B1
Second: B2
The MFI of the first is lower: 12900 MFI for the first, 13000 MFI for the second.

Going from B3 to B4, the MFI rises from 12700 MFI to 17300 MFI.

Compared with B2, B3 is lower in “MFI ratio to WT” value: 3.7 fold for the first, 3.6 fold for the second.

For B4, the “MFI ratio to WT” value was 4.9 fold.

Target: T3, human CTLA-4 (human, UniProt P16410 36-223)
T3 construct: whole, on cells
Test: as above

T3 sequence (P16410 36-223): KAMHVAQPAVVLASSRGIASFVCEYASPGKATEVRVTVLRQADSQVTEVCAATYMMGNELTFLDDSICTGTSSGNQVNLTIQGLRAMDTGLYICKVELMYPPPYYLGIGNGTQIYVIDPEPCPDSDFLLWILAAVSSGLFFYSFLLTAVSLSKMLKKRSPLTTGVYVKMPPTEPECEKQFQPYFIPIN

Compared with B1, B2 is higher in MFI: 8750 MFI for the first, 9040 MFI for the second.

First: B3
Second: B4
The MFI of the first is lower: 9000 MFI for the first, 9040 MFI for the second.

B2 and B3 are the same in “MFI ratio to WT” value: 0.7 fold for the first, 0.7 fold for the second.

For B4, the “MFI ratio to WT” value was 0.7 fold.

Target: T1, human ICOS
Test: as above

First: B1
Second: B2
The MFI of the first is lower: 7700 MFI for the first, 8080 MFI for the second.

First: B3
Second: B4
The MFI of the first is lower: 7610 MFI for the first, 8670 MFI for the second.

B2 and B3 are the same in “MFI ratio to WT” value: 0.7 fold for the first, 0.7 fold for the second.

For B4, the “MFI ratio to WT” value was 0.7 fold.

Target: T2, human CD28
Test: flow cytometry, transfected Expi293 cells

First: B5
Second: B6
The MFI of the first is lower: 57300 MFI for the first, 69600 MFI for the second.

First: B7
Second: B8
The MFI of the first is higher: 68700 MFI for the first, 65500 MFI for the second.

Compared with B9, B10 is higher in MFI: 67600 MFI for the first, 69900 MFI for the second.

Compared with B5, B6 is higher in “MFI ratio to WT” value: 10.9 fold for the first, 13.3 fold for the second.

Compared with B7, B8 is lower in “MFI ratio to WT” value: 13.1 fold for the first, 12.5 fold for the second.

Going from B9 to B10, the “MFI ratio to WT” value rises from 12.9 fold to 13.4 fold.

Target: T3, human CTLA-4
Test: flow cytometry, transfected Expi293 cells

Going from B5 to B6, the MFI rises from 193000 MFI to 315000 MFI.

First: B7
Second: B8
The MFI of the first is lower: 171000 MFI for the first, 194000 MFI for the second.

Compared with B9, B10 is lower in MFI: 213000 MFI for the first, 161000 MFI for the second.

Going from B5 to B6, the “MFI ratio to WT” value rises from 20.5 fold to 33.5 fold.

First: B7
Second: B8
The “MFI ratio to WT” value of the first is lower: 18.2 fold for the first, 20.6 fold for the second.

First: B9
Second: B10
The “MFI ratio to WT” value of the first is higher: 22.7 fold for the first, 17.1 fold for the second.

Target: T1, human ICOS
Test: flow cytometry, transfected Expi293 cells

First: B5
Second: B6
The MFI of the first is higher: 104000 MFI for the first, 103000 MFI for the second.

First: B7
Second: B8
The MFI of the first is lower: 97100 MFI for the first, 105000 MFI for the second.

First: B9
Second: B10
The MFI of the first is higher: 107000 MFI for the first, 104000 MFI for the second.

B5 and B6 are the same in “MFI ratio to WT” value: 1.3 fold for the first, 1.3 fold for the second.

First: B7
Second: B8
The “MFI ratio to WT” value of the first is lower: 1.2 fold for the first, 1.3 fold for the second.

First: B9
Second: B10
The “MFI ratio to WT” value of the first is higher: 1.4 fold for the first, 1.3 fold for the second.

Target: T2, human CD28
Test: flow cytometry, transfected cells; protein from CHO
Remark: another data set of the same source

Going from B3 to B4, the MFI rises from 68600 MFI to 84600 MFI.

First: B3
Second: B4
The “MFI ratio to WT” value of the first is lower: 39.7 fold for the first, 49 fold for the second.

Target: T3, human CTLA-4
Test: as above
Remark: another data set of the same source

First: B3
Second: B4
The MFI of the first is higher: 377000 MFI for the first, 205000 MFI for the second.

Compared with B3, B4 is lower in “MFI ratio to WT” value: 49.8 fold for the first, 27 fold for the second.

Target: T1, human ICOS
Test: as above
Remark: another data set of the same source

Going from B3 to B4, the MFI falls from 133000 MFI to 118000 MFI.

Going from B3 to B4, the “MFI ratio to WT” value falls from 1.3 fold to 1.2 fold.

Target: T2, human CD28
Test: flow cytometry, transfected cells; protein from 293

Compared with B1, B2 is lower in MFI: 13700 MFI for the first, 12000 MFI for the second.

Going from B3 to B4, the MFI rises from 14700 MFI to 16600 MFI.

First: B2
Second: B3
The “MFI ratio to WT” value of the first is lower: 3.4 fold for the first, 4.1 fold for the second.

B4 was tested, and the “MFI ratio to WT” value was 4.7 fold.

Target: T3, human CTLA-4
Test: as above

First: B1
Second: B2
The MFI of the first is lower: 8720 MFI for the first, 9670 MFI for the second.

Compared with B3, B4 is higher in MFI: 8840 MFI for the first, 9670 MFI for the second.

Compared with B2, B3 is lower in “MFI ratio to WT” value: 0.8 fold for the first, 0.7 fold for the second.

B4 was tested, and the “MFI ratio to WT” value was 0.8 fold.

Target: T1, human ICOS
Test: as above

Going from B1 to B2, the MFI falls from 16700 MFI to 7600 MFI.

First: B3
Second: B4
The MFI of the first is lower: 6890 MFI for the first, 9380 MFI for the second.

Going from B2 to B3, the “MFI ratio to WT” value falls from 0.7 fold to 0.6 fold.

B4 was tested, and the “MFI ratio to WT” value was 0.8 fold.
